Values of other authors, collected in patent US20200378979.

Columns and labels:
thrombin (cited work) [1] = molecular target: T1, thrombin (cited work) (UniProt P00734+P00734); experiment: FP; details: 5'-FAM; CITED Van Riesen et al. 2018
thrombin (cited work) [2] = molecular target: T1, thrombin (cited work); experiment: ITC; details: CITED Pagano et al. 2008

Sequence	Kd (thrombin (cited work) [1])	Kd (thrombin (cited work) [2])
GGTTGGTGTGGTTGG [5'-FAM-TBA]	4900 nM	
GGTTGGTGTGGTTGG [native TBA]		330 nM
